Residue numbers refer to the chain shown, from its start. Names and notes keep the numbering of the source. Blank lines part the entries; values can stand above or below the binder they belong to.
Target: Factor X (FX) (Homo sapiens (Human)) (UniProt P00742)
Sequence (P00742 41-488 limits assumed): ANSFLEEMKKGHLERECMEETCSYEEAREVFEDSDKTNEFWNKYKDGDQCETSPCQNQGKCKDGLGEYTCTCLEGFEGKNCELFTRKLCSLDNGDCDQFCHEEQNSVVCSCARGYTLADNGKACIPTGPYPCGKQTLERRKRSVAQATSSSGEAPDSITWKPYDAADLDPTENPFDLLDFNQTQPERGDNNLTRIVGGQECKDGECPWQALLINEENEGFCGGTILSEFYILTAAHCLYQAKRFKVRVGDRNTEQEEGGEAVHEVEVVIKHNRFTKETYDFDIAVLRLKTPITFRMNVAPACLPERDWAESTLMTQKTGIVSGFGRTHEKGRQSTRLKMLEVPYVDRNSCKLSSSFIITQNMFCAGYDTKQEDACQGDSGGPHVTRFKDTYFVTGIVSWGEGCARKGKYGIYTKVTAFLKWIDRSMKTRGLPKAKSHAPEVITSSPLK

B1: FVIIa variant A175S (enzyme)
chain: ANAFLEELRPGSLERECKEEQCSFEEAREIFKDAERTKLFWISYSDGDQCASSPCQNGGSCKDQLQSYICFCLPAFEGRNCETHKDDQLICVNENGGCEQYCSDHTGTKRSCRCHEGYSLLADGVSCTPTVEYPCGKIPILEKRNASKPQGRIVGGKVCPKGECPWQVLLLVNGSQLCGGTLINTIWVVSAAHCFDKIKNWRNLIAVLGEHDLSEHDGDEQSRRVAQVIIPSTYVPGTTNHDIALLRLHQPVVLTDHVVPLCLPERTFSERTLAFVRFSLVSGWGQLLDRGATALELMVLNVPRLMTQDCLQQSRKVGDSPNITEYMFCAGYSDGSKDSCKGDSGGPHATHYRGTWYLTGIVSWGQGCATVGHFGVYTRVSQYIEWLQKLMRSEPRPGVLLRAPFP
- kcat/KM, TF-Dependent Indirect Assay: 3.32e+07 M⁻¹ s⁻¹

B2: FVIIa variant S222A/Q286R/Q366V (enzyme)
chain: B1 chain with S175A, S222A, Q286R, Q366V
- kcat/KM, TF-Dependent Indirect Assay: 1.27e+08 M⁻¹ s⁻¹

B5: FVIIa variant T239L (enzyme)
chain: B1 chain with S175A, T239L
- kcat/KM, TF-Dependent Indirect Assay: 3.77e+07 M⁻¹ s⁻¹

B6: FVIIa variant A175S/Q286R/Q366V (enzyme)
chain: B1 chain with Q286R, Q366V
- kcat/KM, TF-Dependent Indirect Assay: 8.08e+07 M⁻¹ s⁻¹

B9: FVIIa variant T239Q (enzyme)
chain: B1 chain with S175A, T239Q
- kcat/KM, TF-Dependent Indirect Assay: 1.74e+07 M⁻¹ s⁻¹

B12: FVIIa variant T239S (enzyme)
chain: B1 chain with S175A, T239S
- kcat/KM, TF-Dependent Indirect Assay: 1.74e+07 M⁻¹ s⁻¹

B14: FVIIa variant T239I (enzyme)
chain: B1 chain with S175A, T239I
- kcat/KM, TF-Dependent Indirect Assay: 3.5e+07 M⁻¹ s⁻¹

B15: FVIIa variant Q286R/M298Q/K341Q (enzyme)
chain: B1 chain with S175A, Q286R, M298Q, K341Q
- kcat/KM, TF-Dependent Indirect Assay: 3.93e+07 M⁻¹ s⁻¹

B16: FVIIa variant S222A/H257A (enzyme)
chain: B1 chain with S175A, S222A, H257A
- kcat/KM, TF-Dependent Indirect Assay: 5.02e+07 M⁻¹ s⁻¹

B18: FVIIa variant S222A/H257A/Q286R/M298Q (enzyme)
chain: B1 chain with S175A, S222A, H257A, Q286R, M298Q
- kcat/KM, TF-Dependent Indirect Assay: 2e+08 M⁻¹ s⁻¹

B21: FVIIa variant S222A/H257A/M298Q (enzyme)
chain: B1 chain with S175A, S222A, H257A, M298Q
- kcat/KM, TF-Dependent Indirect Assay: 7.75e+07 M⁻¹ s⁻¹

B22: FVIIa variant A122N/G124S (enzyme)
chain: B1 chain with A122N, G124S, S175A
- kcat/KM, TF-Dependent Indirect Assay: 5.27e+07 M⁻¹ s⁻¹

B23: FVIIa variant A175S/S222A/Q366V (enzyme)
chain: B1 chain with S222A, Q366V
- kcat/KM, TF-Dependent Indirect Assay: 3.78e+07 M⁻¹ s⁻¹

B24: FVIIa variant P406ins… (enzyme)
chain: ANAFLEELRPGSLERECKEEQCSFEEAREIFKDAERTKLFWISYSDGDQCASSPCQNGGSCKDQLQSYICFCLPAFEGRNCETHKDDQLICVNENGGCEQYCSDHTGTKRSCRCHEGYSLLADGVSCTPTVEYPCGKIPILEKRNASKPQGRIVGGKVCPKGECPWQVLLLVNGAQLCGGTLINTIWVVSAAHCFDKIKNWRNLIAVLGEHDLSEHDGDEQSRRVAQVIIPSTYVPGTTNHDIALLRLHQPVVLTDHVVPLCLPERTFSERTLAFVRFSLVSGWGQLLDRGATALELMVLNVPRLMTQDCLQQSRKVGDSPNITEYMFCAGYSDGSKDSCKGDSGGPHATHYRGTWYLTGIVSWGQGCATVGHFGVYTRVSQYIEWLQKLMRSEPRPGVLLRAPFPGGGSCSFGRGDIRNVC
- kcat/KM, TF-Dependent Indirect Assay: 7.47e+07 M⁻¹ s⁻¹

B25: FVIIa variant S103S111delins… (enzyme)
chain: ANAFLEELRPGSLERECKEEQCSFEEAREIFKDAERTKLFWISYSDGDQCASSPCQNGGSCKDQLQSYICFCLPAFEGRNCETHKDDQLICVNENGGCEQYCSFGRGDIRNVCRCHEGYSLLADGVSCTPTVEYPCGKIPILEKRNASKPQGRIVGGKVCPKGECPWQVLLLVNGAQLCGGTLINTIWVVSAAHCFDKIKNWRNLIAVLGEHDLSEHDGDEQSRRVAQVIIPSTYVPGTTNHDIALLRLHQPVVLTDHVVPLCLPERTFSERTLAFVRFSLVSGWGQLLDRGATALELMVLNVPRLMTQDCLQQSRKVGDSPNITEYMFCAGYSDGSKDSCKGDSGGPHATHYRGTWYLTGIVSWGQGCATVGHFGVYTRVSQYIEWLQKLMRSEPRPGVLLRAPFP
- kcat/KM, TF-Dependent Indirect Assay: 4.83e+07 M⁻¹ s⁻¹

B26: FVIIa variant S222A/Gla Swap FIX (enzyme)
chain: YNSGKLEEFVQGNLERECMEEKCSFEEAREVFENTERTTEFWKQYSDGDQCASSPCQNGGSCKDQLQSYICFCLPAFEGRNCETHKDDQLICVNENGGCEQYCSDHTGTKRSCRCHEGYSLLADGVSCTPTVEYPCGKIPILEKRNASKPQGRIVGGKVCPKGECPWQVLLLVNGAQLCGGTLINTIWVVSAAHCFDKIKNWRNLIAVLGEHDLSEHDGDEQARRVAQVIIPSTYVPGTTNHDIALLRLHQPVVLTDHVVPLCLPERTFSERTLAFVRFSLVSGWGQLLDRGATALELMVLNVPRLMTQDCLQQSRKVGDSPNITEYMFCAGYSDGSKDSCKGDSGGPHATHYRGTWYLTGIVSWGQGCATVGHFGVYTRVSQYIEWLQKLMRSEPRPGVLLRAPFP
- kcat/KM, TF-Dependent Indirect Assay: 6.55e+07 M⁻¹ s⁻¹

B27: FVIIa variant S222A/H257A/Gla Swap FIX (enzyme)
chain: B26 chain with H258A
- kcat/KM, TF-Dependent Indirect Assay: 5.77e+07 M⁻¹ s⁻¹

B32: FVIIa variant Q286R/S222A/Gla Swap FIX (enzyme)
chain: B26 chain with Q287R
- kcat/KM, TF-Dependent Indirect Assay: 1.61e+08 M⁻¹ s⁻¹

Second part, the binder after the results:

- kcat/KM, TF-Dependent Indirect Assay: 4.48e+06 M⁻¹ s⁻¹
B3: FVIIa variant V158D/L287T/M298K (enzyme)
chain: B1 chain with V158D, S175A, L287T, M298K

- kcat/KM, TF-Dependent Indirect Assay: 1.27e+08 M⁻¹ s⁻¹
B4: FVIIa variant Q286R/H257A (enzyme)
chain: B1 chain with S175A, H257A, Q286R

- kcat/KM, TF-Dependent Indirect Assay: 4.88e+07 M⁻¹ s⁻¹
B7: FVIIa variant A122N/G124S/E394N/P395A/R396S (enzyme)
chain: B1 chain with A122N, G124S, S175A, E394N, P395A, R396S

- kcat/KM, TF-Dependent Indirect Assay: 1.42e+08 M⁻¹ s⁻¹
B8: FVIIa variant Q286R/S222A (enzyme)
chain: B1 chain with S175A, S222A, Q286R

- kcat/KM, TF-Dependent Indirect Assay: 9.9e+06 M⁻¹ s⁻¹
B10: FVIIa variant T239H (enzyme)
chain: B1 chain with S175A, T239H

- kcat/KM, TF-Dependent Indirect Assay: 6.35e+07 M⁻¹ s⁻¹
B11: FVIIa variant T130N/E132S (enzyme)
chain: B1 chain with T130N, E132S, S175A

- kcat/KM, TF-Dependent Indirect Assay: 4.5e+06 M⁻¹ s⁻¹
B13: FVIIa variant V158T/L287T/M298K (enzyme)
chain: B1 chain with V158T, S175A, L287T, M298K

- kcat/KM, TF-Dependent Indirect Assay: 7.74e+07 M⁻¹ s⁻¹
B17: FVIIa variant Q286R/M298Q/K199E (enzyme)
chain: B1 chain with S175A, K199E, Q286R, M298Q

- kcat/KM, TF-Dependent Indirect Assay: 9.57e+07 M⁻¹ s⁻¹
B19: FVIIa variant T239V (enzyme)
chain: B1 chain with S175A, T239V

- kcat/KM, TF-Dependent Indirect Assay: 9.51e+07 M⁻¹ s⁻¹
B20: FVIIa variant Q286R/S222A/H257A (enzyme)
chain: B1 chain with S175A, S222A, H257A, Q286R

- kcat/KM, TF-Dependent Indirect Assay: 8.09e+07 M⁻¹ s⁻¹
B28: FVIIa variant Q286R/H257A/Gla Swap FIX (enzyme)
chain: B26 chain with A223S, H258A, Q287R

- kcat/KM, TF-Dependent Indirect Assay: 1.11e+08 M⁻¹ s⁻¹
B29: FVIIa variant Q286R/Gla Swap FIX (enzyme)
chain: B26 chain with A223S, Q287R

- kcat/KM, TF-Dependent Indirect Assay: 7.75e+07 M⁻¹ s⁻¹
B30: FVIIa variant Q286R/S222A/H257A/Gla Swap FIX (enzyme)
chain: B26 chain with H258A, Q287R

- kcat/KM, TF-Dependent Indirect Assay: 6.45e+07 M⁻¹ s⁻¹
B31: FVIIa variant H257A/Gla Swap FIX (enzyme)
chain: B26 chain with A223S, H258A

- kcat/KM, TF-Dependent Indirect Assay: 6.16e+07 M⁻¹ s⁻¹
B33: FVIIa variant P406ins… (enzyme)
chain: ANAFLEELRPGSLERECKEEQCSFEEAREIFKDAERTKLFWISYSDGDQCASSPCQNGGSCKDQLQSYICFCLPAFEGRNCETHKDDQLICVNENGGCEQYCSDHTGTKRSCRCHEGYSLLADGVSCTPTVEYPCGKIPILEKRNASKPQGRIVGGKVCPKGECPWQVLLLVNGAQLCGGTLINTIWVVSAAHCFDKIKNWRNLIAVLGEHDLSEHDGDEQSRRVAQVIIPSTYVPGTTNHDIALLRLHQPVVLTDHVVPLCLPERTFSERTLAFVRFSLVSGWGQLLDRGATALELMVLNVPRLMTQDCLQQSRKVGDSPNITEYMFCAGYSDGSKDSCKGDSGGPHATHYRGTWYLTGIVSWGQGCATVGHFGVYTRVSQYIEWLQKLMRSEPRPGVLLRAPFPCSFGRGDIRNVC
